This data set is described as follows: soluble on expression in E. coli; label from the status in PepcDB or PDB records.
As to “MAHHHHHHMQKTILQILREQDDASSSCVLALLKGNASFQCLSKSEGEDILKRDNEDAEKLSDGIRIAIRKGIVSGKPDVSPVNKLNVVGLSAQEVTDKIVAALPSKNGNVIILQGLSGTGKGTTVSKLKDALPKCVTWSNGNIFRSYTYLCNEVLAAQGKEITEESLTDELLSSVEKRVTFVKCEDGMFHTMLDGTRRVADVQNTLLKTPLISSKVPTVAQQTQGEVIRFGAGAVKQLSADGYNVILEGRSQTLDYISSPLRFELIIPDVEVLGQRRAAQRVMAKALEMLDDSASDEEVSKVLVKAVETLQ”, the “soluble on expression in E. coli” value was “soluble”.

Regarding “MANHELDQLRKQVDEINLQLLHLLNKRGEIVQKIGEQKQVQGTKRFDPVREREVLDMIAENNEGPFETSTVQHIFKTIFKASLELQEDDNRKALLVSRKKKQENTIVDVKGELIGNGTQTFIMGPCAVESLEQVRQVGQAMKDQGLKLMRGGAFKPRTSPYDFQGLGVEGLQILRQVADEFDLAIISEILNPNDVEMALDYVDVIQVGARNMQNFDLLRAVGKVNKPVLLKRGLAATIDEFINAAEYIIAQGNDQIILCERGIRTYERATRNTLDISAVPILKKETHLPVVVDVTHSTGRRDLLLPTAKAALAIGADAVMAEVHPDPAVALSDSAQQMDIPEFHRFMEELKGFKNKLS”, the “soluble on expression in E. coli” value is recorded as “not soluble”.

Turning to “MGSSHHHHHHSSGLVPRGSHMIMIHIKAIHDLTVPLETYMPIWPTNPLLEIKPVGTVARDGYKIETISGSTHSGTHIDAPAHMLENGITIDQIDPIRFIGTGYCIKTIPDGNFVRSTHLIEKWKEEYDGSIILIETGWYKKRGFTREFQYEFPGLTEDAAEFLIERNVKLVGIDTLGIEPYQDSDFHVHKKLLSKGIPFIEDLYGLDDLEEGKPYLVVALPLKMKGASGSMARVMALEMD”, the “soluble on expression in E. coli” value is recorded as “soluble”.

Take “MRNTIEIEDPNHRPFTISSNYAYYIGYLDLRPDGMGYHKRGEMNGLWYPPLRVLKNIYVSDGKTVFKPAHAEIGYSEARFEFYGTTLQISFQDDNDFEIAVKNASNDVRKLIVELHPETVWYTVNDTRIKVNRRSAIIYSHMFPETRLRIAASSEFSIENGRLSLLADGKSSLRISSACLHSHRPPIRVNRYRDIDRFSLLRGGGQIGENFRTAKDNLIRLSLINQETGYGLTAGHPDFPWYFGIDTLLSFNGILDAGLFELAFGSLNILARYSKSGKIPHEILTSGKVYNDGDLEETALFPYAVFKYAEWAGYTEEMRHLATIASESFNYLFAHGFQGRGIMEDPKAGEGVDIDTISFTIMSLMELQKVMDMDQEAFGGIADAVKPTEAIDALRKTVQSFWMSERRTFANRIVDGVPVDLGFWTSIIPFYTGIAGIDQYRKFVSDGGGLSRISSSSGIVVDASGNSMPVNTGMFVLGSIRYGDAENAARYFKMLDRSLGLFSPGAYPEISNNPQGCYLQAWSAAIYIESIVEGFFGIHSEGGRLISKPFNSSLMPGGATLKNVRFRNKYYDFIL”: the “soluble on expression in E. coli” value was “not soluble”.

For “MGHHHHHHSHMRVFIIHLSPKTCQNFSLKETHITPLLESLKLQGISYEIFDAIYSKISPTQLHPLILEHLHPSFMVEDLWAFCKNKKHPPCALKNFFYAIKHCGKRMGFGELGCYASHYSLWQKCIELNEAICILEDDIIIKDRFKESLEFCRHHINELGYIRLMHLEENVAKQKTPVKGVSQILNFKDGIGTQGYVLAPKAAQKLLKYSAKEWVMPIDCVMDRHYWHGVKNYVLEEFAIACDGMNAQNSNTEKQRPKKLPLSIRIGRSLHKSTIKFLDKVFRYSPKLIRIGKH”, the “soluble on expression in E. coli” value is recorded as “soluble”.

On to “MNALTALSPLDGRYASKCDALRPFLSEFGLIHARVTVEVRWLQALSNHAGIIEVAPFSTETNAALDSIVANFSEDDANRIKEIERTTNHDVKAVEYFLKEKIAGLDELKNAGEFIHFACTSEDINNLSHALMLKNGREVLVSSMKQILNAIAALATTHAEQPMLSRTHGQTASPTTLGKEMANVAYRLARQIKQFENVELLGKINGAVGNYNAHLSAYPDIDWAAHSQAFVESLGLTFNPYTTQIEPHDYMAELFDALRRYNTILIDFNRDVWGYISLGYFKQKLKDGEVGSSTMPHKVNPIDFENSEGNLGIANAVLGHLGEKLPVSRWQRDLTDSTVLRNMGVGFAQSLIAFDACLKGIGKLELNAARLAEDLNQAQEVLAEPIQTVMRRYNVEKPYEKLKALTRGQAMTRDMMVNFVNGDELSQVPAEERARLAEMTPASYTGNAADQAKQINDLINKI”, for which the “soluble on expression in E. coli” value was “not soluble”.

For “MFRLSALYRYPIKSSAAESLERVALDALGVVGDRRWMAVDTETGRFFTQRLLPQLGRIQARWAAPEVLRLNAPGMSELSLEVPAADANLRGVTVWRDTLQAPDAGDAAADWLTRFLGRP”, the “soluble on expression in E. coli” value was “not soluble”.

With “GPGSMSAIPPPHYVRLRRYNLSIFVHCDVHNDTVQAIKERYGKLTGHIFYNARLYLGQQSLDDFLTLYGCGIEAEGAELVVVHSKGAKGDGTSEHIWETVEEAMAAPQGDSLNSPEVTAEGTAKLDSMEAAATSNEVGNQQQQQAADARGGTGAELNVGFVGV”, the “soluble on expression in E. coli” value is “soluble”.

Turning to “MTKIIPVASGKGGVGKTSFVANVGYKLSSLGKTVILVDLDLGGSNLHTCLGVKNKGVGIGSFINKKSKSFSDLVCKTSYDKLYLIPGDALYTGTANLPFSIKKKIIESIQKDLIADFIFLDLGSGTSYNTIDFYLASYSGVIVTIPETPSILNAYSFLKNALYRLLYLGFPQKSPERDYIGNFFKDKIEGTNLGFKDLVVGIELISLSSSLKVKRMMNNFYPRVVLNRIETSEEIAMCENLINVVKNNINIPIEFIGFVPFAKSFREAINNRVPFIDFEKNSKLNKYFEFIAGNLIKSPIEGSPYIYDDIYDMIKDQSRFIRKLEHHHHHH”, the “soluble on expression in E. coli” value is listed as “soluble”.

Take “MDKQKVALVLSMGGARGIAHIGVIEELLRHNFEITSIAGSSMGAMVGAMYASGKLEECKEWLYSWDKRKMWELADLTLSRDGLVKGDRFIKELKQIIPVMNIEDLPIPYVAMATDIVCDQEVRFDSGNLYDAIRATISIPMLFRPLRKDGMVLIDGGILNPLP”: the “soluble on expression in E. coli” value is “not soluble”.

As to “MDNIVTESIKFESEPNYLQRGYHLFDISFLNGLTCVITNKIETDEIHLKIKLDWDERDIEKITGFIQLSYDGHQLKPIDSNFDKRGGICTIIVPKFLYEYRWSFSFNLKLHRDPAKPPQISNDLKSQVSYDTMFEPSRKHDAVLLIGEKKLHVNKAFLSYHSDYFSDLFAEKVDEKNGIPIENVTYENFGLLMSVIYPEAVFSNHQNAEVLLELGNRFKIPAVMRHVENQIVGDTTKFPNKRLISLAEKYGLQKLLAMEIQKMKSFDQAKKFKGSDDYLQLSDATKAKIFDRLIELS”, the “soluble on expression in E. coli” value is “not soluble”.

Consider “MGSDKIHHHHHHMTVLHSVDFFPSGNASVAIEPRLPQADFPEHHHDFHEIVIVEHGTGIHVFNGQPYTITGGTVCFVRDHDRHLYEHTDNLCLTNVLYRSPDRFQFLAGLNQLLPQELDGQYPSHWRVNHSVLQQVRQLVAQMEQQEGENDLPSTASREILFMQLLLLLRKSSLQENLENSASRLNLLLAWLEDHFADEVNWDAVADQFSLSLRTLHRQLKQQTGLTPQRYLNRLRLMKARHLLRHSEASVTDIAYRCGFSDSNHFSTLFRREFNWSPRDIRQGRDGFLQ”, for which the “soluble on expression in E. coli” value is on record as “not soluble”.

“MAVLAALLRSGARSRSPLLRRLVQEIRYVERSYVSKPTLKEVVIVSATRTPIGSFLGSLSLLPATKLGSIAIQGAIEKAGIPKEEVKEAYMGNVLQGGEGQAPTRQAVLGAGCDGGRWDGEHVHVPYVMNRGSTPYGGVKLEDLIVKDGLTDVYNKIHMGSCAENTAKKLNIARNEQDAYAINSYTRSKAAWEAGKFGNEVIPVTVTVKGQPDVVVKEDEEYKRVDFSKVPKLKTVFQKENGTVTAANASTLNDGAAALVLMTADAAKRLNVTPLARIVGKARRGGSHL”: the “soluble on expression in E. coli” value is on record as “not soluble”.

Turning to “MGSDKIHHHHHHMPATVPFVGPEAIERQRNLPVKARIGANESGFGPSPKVHLALQAASSDIWKYADPENFDLKAALAAHYGLAADNFAVGEGVDDLLGLTVRLVIEQGLPVVTSLGGYPTFNFHVNGFGGQLVTVPYRQDREDLDGLLEAVRRENAPLAYLANPDNPMGSWHESHDVVAFARALPETCLLILDEAYSETAPAGSIPAVDALIDLPNVLRMRTFSKAYGLAGARIGYAIGTPGTVSAFDKIRNHFGMVRTSVAAALAALADQDYLTATVARIIAARERISSIARQNGLQPLASATNFVAVDCGRDPAYARSIVDGLMQHGVFIRMPGVAPLNRCIRISAGLPEDLDLLEQALPIVLRDIG”, the “soluble on expression in E. coli” value is “not soluble”.

As for “MSLKPGDEVKVLTFGQKGTLLEKTGGNEWNVQIGILKMKVKEKDLEFIKSAPEPKKEKMITAVKGKDYHVSLELDLRGERYENALSRVEKYLDDAVLAGYPRVSIIHGKGTGALRKGVQDLLKNHRSVKSSRFGEAGEGGSGVTVVELKEGHHHHHH”, the “soluble on expression in E. coli” value is reported as “not soluble”.

As to “SNRFIAVFSDITRHKQTEEDLLRSEQHYRLLHETMLQGVVYQDASGKIISMNPAAERILGKTPAEFLGSSSVGEEYLTIREDGSMFPGLEHPAMVSLRTGQKVQGVVMGVYNPRENFYRWININAVPIFRTGEDRPFQVYTLFDDI”, the “soluble on expression in E. coli” value is “not soluble”.

Take “MSLKSDKDHSVNINARGSFNDRADEISDAEQYGNRLSLAYQGKFLEDTLGVAVGYAHLYQPYVASQFIGLRFNDANEDVNGDGVKEAISEGFELQQKGGDDTRDGYMAAIHWQPTDNFSVKGDLFHSKFTSENFARGFRVKSLKNGTISDAVVESGSMTGGTVSTDGTDNFAVFVVNDNDSKYSELTSGSFNVEWNNGGALTVAADVSYSKADGEFVNGGTRAVLYDDIGNEVRSAESVTYKLNGLSPADISFANDYTNTATLGLKEVGMWPYNQQNDLVAYKLDFNYALDMGFVSSVDFGVRYAEREFNAQRSQAGYGFEYGKNPSNQPVLALNGDMAKVVDFGGELSGYPSFLAIDFNKAIELVNAQLAATGQSPFTPTANWSNNWTMIQSGAVNEDVLAGYVQANLDFDIGDIKVTGNLGVRVVNTDQSSTGLQQVGYGLGEAITDELGVVSKDYIRNEVGKTYTDYLPSLNLTFHLTENDQLRFAAASVMSRPPINKLKSGMGSWYDDSATPGYKKYNAWGNTSPLLDPFYADQYDLSYEHFFEESEGAVVVALFYKDIKSFINDFTIQPFDFEANGFIVPDTIIDNGVEFPVIKNEGQYQTAINNDKGGYIRGIELGYTQIFDFLPSPLDGLGFTGSYSYSDSEVELTTDLSGSNLIMPLPGEGHHHHHH”: the “soluble on expression in E. coli” value is listed as “not soluble”.

As to “MSLQYIVVTGGVISGLGKGTITSSIGHILKDSGFKVSSVKIDPYINYDAGTMNPYQHGEVFVLDDGSEVDLDLGNYERFMDINLSWKNNITTGKVYLEVIEKERHGDYLGKTVQIIPHITDEIKRRIRDVATSSKADFVLIEVGGTVGDIESMPFLEAVRQLKREENNVIFAHVTLVPEIGPTEEQKTKPTQHSVTALREIGIQPDIIFARSKNRLLEETKKRISLFTDVPEGGIISVYDVENVYLLPEVMVNEGFISYLSKLSGKEIKYRDSWKAYTENIKHPKDRVKIAIVGKYVDLHDAYISHKEAFSHVTGNTGIAVDIKWLDSEKVKDDQSMLSDVDAILIPGGFGYRGVEGKIAATRFALENHIPFLGICLGFQVAVIEIARDIIGLQNANSTEFDPATKYPVIDILPEQKGIKDLGGTMRLGSKKVLIKDGTLAKRIYGTDTIYERHRHRYEVNPNYISIIEKAGFVFSGTDEDGIRMEILEKKGDESFIATQYHSEFKSRPLNPSRVHLHLVQQALIYKKNKDIGEAVKLRSSVEGHHHHHH”, the “soluble on expression in E. coli” value is “soluble”.

The values are drawn from the DeepSol protein solubility set.
